Assay results published in patent publication US20170210813A1 (Regeneron, published 2017).

B1: H4H3099S (antibody, human IgG4, V domains shown)
VH: QITLKESGPTLVKPTQTLTLTCTFSGFSLTTTGVGVGWIRQPPGKALEWLALIYWNDLKRYSPSLKNRLTITKDTSRHQVVLTMTNMDPMDTATYYCAHRPLYYGSGSGWFDPWGPGTTVTVSS
VL: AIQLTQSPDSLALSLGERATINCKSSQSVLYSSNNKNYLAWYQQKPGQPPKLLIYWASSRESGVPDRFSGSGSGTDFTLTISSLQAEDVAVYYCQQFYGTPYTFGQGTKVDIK
notes: human IgG4 Fc (H4H prefix)
B2: H4H3305N (antibody, human IgG4, V domains shown)
VH: QLQLQESGPGLVKPSETLSLTCIVSGGSISSSSYYWGWIRQPPGKGLEWIGSLYYSGITFYNPSLKSRVTISVDTSKNQFSLTLTSVTAADTAVFYCARHRVMASSPFDHWGQGTLVTVSS
VL: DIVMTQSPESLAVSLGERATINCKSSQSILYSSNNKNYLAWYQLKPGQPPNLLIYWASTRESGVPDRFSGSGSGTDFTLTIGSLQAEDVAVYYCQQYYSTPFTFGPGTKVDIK
notes: human IgG4 Fc (H4H prefix)
B3: H4H3094P (antibody, human IgG4, V domains shown)
VH: EVQLVESGGGLVQPGGSLRLSCAASGFTFSSYWMSWVRQAPGKGLEWVANMNQDGSETHYVDSVKGRLSISRDNAKKSLFLHMNSLRAEDTAVYFCARDLVPPRQDDYYYYFGMDVWGHGTTVTVSS
VL: DIQMTQSPSTLSASVGDRVTITCRASQSISDWLAWYQQKPGKAPKLLIFKASTLESGVPSRFSGSGSGTEFTLTISSLQPDDFATYYCQQYNSYSRTFGQGTKVEIK
notes: also called H4H3394P
B4: H4H3374N (antibody, human IgG4, V domains shown)
VH: QLQLQESGPGLVKPSETLSLTCTVSGGSITSSSYYWGWIRQPPGKGLEWIGSIYYRGSTNYNPSLKSRVTISVDSSKNQFYLKVSSVTAVDTAVYYCARQNGAARPSWFDPWGQGTLVTVSS
VL: EIVLTQSPDTISLSPGERATLSCRASQSISSIYLAWYQQKPGQAPRLLIYGASSRVTGIPDRFSVSGSGTDFTLTISRLEPEDFAVYYCQHYGISPFTFGPGTKVDIR
notes: human IgG4 Fc (H4H prefix)

target: T1, hPDGFRb.mmh (human, UniProt P09619 33-531); assay: Octet BLI cross-competition, 25 C; hPDGFRb.mmh on anti-Penta-His tips pre-saturated with mAb-1 H4H3374N (row 3)
T1 construct: Soluble monomeric construct; also called soluble human PDGFR-beta.mmh
Protocol: (§1) A cross-competition assay was conducted to assess the ability of select antibodies to compete with one another for binding to human PDGFR-beta. […] Each PDGFR-beta.mmh-coated sensor tip was saturated for 5 min with a first anti-PDGFR-beta antibody (Mab #1; 50 μg/mL). Next, each sensor tip was saturated with a solution of a second anti-PDGFR-beta antibody (Mab #2). The real time response of Mab #2 binding to PDGR-beta.mmh pre-complexed with Mab #1 was then monitored. All assays were performed at 25° C. with a flow rate of 1000 rpm on an Octet RED384 biosensor in Octet HBST buffer according to manufacturer's instructions (ForteBio Corp., Menlo Park, Calif.). Results are illustrated in FIG. 2.

Binder	Response of mAb-2 Binding to hPDGFRβ.mmh Pre-Complexed with mAb-1 (nm)
B1	0.31 nm
B2	0.24 nm
B3	0.02 nm

target: T2, human PDGFRb.hFc (human); assay: SPR, mAb captured, 25 C
T2 construct: Soluble dimeric construct with human Fc; also called hPDGFRb.hFc
Protocol: (§2) Antibodies, expressed as either mouse Fc (prefix H1M; H2M) or human Fc (prefix H4H), were captured on their respective anti-Fc sensor surfaces (Mab capture format). […] Kinetic association (kₐ) and dissociation (kd) rate constants were determined by processing and fitting the data to a 1:1 binding model using Scrubber 2.0 curve fitting software.

Binder	Kd	koff	kon	t1/2
B1	0.23 nM	5.48e-05 s⁻¹	238000 M⁻¹ s⁻¹	3.52 h
B2	0.248 nM	3.42e-05 s⁻¹	138000 M⁻¹ s⁻¹	5.63 h
B3	0.256 nM	6.2e-05 s⁻¹	242000 M⁻¹ s⁻¹	3.1 h
B4	0.148 nM	8.93e-05 s⁻¹	600000 M⁻¹ s⁻¹	2.15 h

Target: T3, Macaca fascicularis PDGFRb.mmh (Macaca fascicularis)
T3 construct: Soluble monomeric construct; also called mfPDGFRb.mmh
T3 chain: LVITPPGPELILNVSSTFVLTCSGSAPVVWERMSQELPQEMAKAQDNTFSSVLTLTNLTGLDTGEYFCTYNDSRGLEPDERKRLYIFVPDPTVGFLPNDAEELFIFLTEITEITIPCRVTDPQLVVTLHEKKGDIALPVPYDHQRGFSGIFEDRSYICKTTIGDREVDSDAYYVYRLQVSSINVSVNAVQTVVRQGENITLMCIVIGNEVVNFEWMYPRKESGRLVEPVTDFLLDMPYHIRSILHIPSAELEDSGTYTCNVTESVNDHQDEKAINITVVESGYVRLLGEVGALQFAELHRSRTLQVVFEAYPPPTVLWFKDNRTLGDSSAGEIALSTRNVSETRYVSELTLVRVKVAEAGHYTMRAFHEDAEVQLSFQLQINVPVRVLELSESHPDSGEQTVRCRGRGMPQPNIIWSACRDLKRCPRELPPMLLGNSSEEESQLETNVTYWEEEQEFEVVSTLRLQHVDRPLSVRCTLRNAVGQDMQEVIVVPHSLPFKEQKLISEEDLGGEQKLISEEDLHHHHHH
Assay: SPR, mAb captured, 25 C
Protocol: as §2

Binder	Kd	koff	kon	t1/2
B1	0.987 nM	0.000164 s⁻¹	166000 M⁻¹ s⁻¹	1.18 h
B2	1.82 nM	0.000111 s⁻¹	61200 M⁻¹ s⁻¹	1.73 h
B3	1.63 nM	0.000289 s⁻¹	177000 M⁻¹ s⁻¹	0.667 h
B4	1.66 nM	0.000472 s⁻¹	284000 M⁻¹ s⁻¹	0.4 h

target: T1, hPDGFRb.mmh; assay: SPR, mAb captured, 25 C
Protocol: as §2

Binder	Kd	koff	kon	t1/2
B1	1.16 nM	0.000169 s⁻¹	145000 M⁻¹ s⁻¹	1.13 h
B2	1.81 nM	0.000109 s⁻¹	59900 M⁻¹ s⁻¹	1.77 h
B3	1.56 nM	0.000257 s⁻¹	165000 M⁻¹ s⁻¹	0.75 h
B4	1.26 nM	0.000358 s⁻¹	283000 M⁻¹ s⁻¹	0.533 h

target: T1, hPDGFRb.mmh; assay: blocking ELISA, biot-hPDGFRb.mmh to coated PDGF-BB

Binder	% Maximum Blocking	IC50
B1	91%	0.097 nM
B2	86%	0.3 nM
B3	85%	0.12 nM
B4	86%	0.12 nM

target: T1, hPDGFRb.mmh; assay: Octet BLI cross-competition, 25 C; hPDGFRb.mmh on anti-Penta-His tips pre-saturated with mAb-1 H4H3107S (row 7)
Protocol: as §1

Binder	Response of mAb-2 Binding to hPDGFRβ.mmh Pre-Complexed with mAb-1 (nm)
B2	0 nm
B3	0.23 nm
B4	0.24 nm

target: T1, hPDGFRb.mmh; assay: Octet BLI cross-competition, 25 C; hPDGFRb.mmh on anti-Penta-His tips pre-saturated with mAb-1 H4H3310N (row 9)
Protocol: as §1

Binder	Response of mAb-2 Binding to hPDGFRβ.mmh Pre-Complexed with mAb-1 (nm)
B2	0.01 nm
B3	0.25 nm
B4	0.26 nm

target: T1, hPDGFRb.mmh; assay: Octet BLI cross-competition, 25 C; hPDGFRb.mmh on anti-Penta-His tips pre-saturated with mAb-1 Control I (row 1)
Protocol: as §1

Binder	Response of mAb-2 Binding to hPDGFRβ.mmh Pre-Complexed with mAb-1 (nm)
B1	0.28 nm
B2	0.22 nm
B3	-0.01 nm

target: T1, hPDGFRb.mmh; assay: Octet BLI cross-competition, 25 C; hPDGFRb.mmh on anti-Penta-His tips pre-saturated with mAb-1 H4H3365N (row 2)
Protocol: as §1

Binder	Response of mAb-2 Binding to hPDGFRβ.mmh Pre-Complexed with mAb-1 (nm)
B1	0.33 nm
B2	0.26 nm
B4	0.01 nm

Target: T4, PDGFR-beta extracellular domain construct D1 (human)
T4 chain: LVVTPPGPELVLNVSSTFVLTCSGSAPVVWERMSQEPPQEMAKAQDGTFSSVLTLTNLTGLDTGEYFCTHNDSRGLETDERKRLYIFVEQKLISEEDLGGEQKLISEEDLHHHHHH
Assay: SPR, mAb captured, construct as analyte
Protocol: Four different anti-PDGFR-beta antibodies were tested for binding to the various constructs by surface plasmon resonance (Biacore). Briefly, 150-200 RU's of anti-PDGFR beta antibody was captured via an anti-human Fc CM5 chip. Next, the individual domain constructs, or full-length PDGFR beta, was applied over the antibody-bound surface at a concentration of 50nM. The ability of the various antibodies to bind to the various domain constructs was measured. (−)=No binding observed; (+)=Binding observed; ND=Not determined.

Binder	binding result
B1	no binding (tested: 50nM)
B2	no binding (tested: 50nM)
B3	no binding (tested: 50nM)
B4	no binding (tested: 50nM)

target: T1, hPDGFRb.mmh; assay: Octet BLI cross-competition, 25 C; hPDGFRb.mmh on anti-Penta-His tips pre-saturated with mAb-1 H4H3099S (row 6)
Protocol: as §1

Binder	Response of mAb-2 Binding to hPDGFRβ.mmh Pre-Complexed with mAb-1 (nm)
B2	0 nm
B3	0.25 nm
B4	0.27 nm

target: T1, hPDGFRb.mmh; assay: Octet BLI cross-competition, 25 C; hPDGFRb.mmh on anti-Penta-His tips pre-saturated with mAb-1 H4H3103S (row 4)
Protocol: as §1

Binder	Response of mAb-2 Binding to hPDGFRβ.mmh Pre-Complexed with mAb-1 (nm)
B1	0.34 nm
B2	0.25 nm
B3	0.02 nm
B4	0.02 nm
